Reference: patent CN110616192A

Tests used:
神经丝轻链(NEFL) (human) [1] = biological target: 神经丝轻链(NEFL) (human) (UniProt P07196); assay: indirect ELISA, antigen coated at 5 μg/ml, antibody diluted 10^4-fold
神经丝轻链(NEFL) (human) [2] = biological target: 神经丝轻链(NEFL) (human) (UniProt P07196); assay: indirect ELISA titre, serial two-fold dilution of purified antibody
神经丝轻链(NEFL) (human) [3] = biological target: 神经丝轻链(NEFL) (human) (UniProt P07196); assay: calculated from the indirect ELISA titre

Chain of UniProt P07196 (P07196 1-360 limits assumed): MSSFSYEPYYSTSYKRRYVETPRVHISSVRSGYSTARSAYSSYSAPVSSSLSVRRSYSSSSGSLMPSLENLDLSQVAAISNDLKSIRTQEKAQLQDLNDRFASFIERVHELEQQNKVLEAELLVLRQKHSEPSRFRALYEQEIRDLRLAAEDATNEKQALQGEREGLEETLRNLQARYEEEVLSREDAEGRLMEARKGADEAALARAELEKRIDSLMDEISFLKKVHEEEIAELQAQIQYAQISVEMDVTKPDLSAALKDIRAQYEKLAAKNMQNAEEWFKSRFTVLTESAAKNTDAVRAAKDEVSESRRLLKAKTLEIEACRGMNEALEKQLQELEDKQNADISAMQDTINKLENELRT

OD450 (神经丝轻链(NEFL) (human) [1]) [OD450]	抗体效价 (神经丝轻链(NEFL) (human) [2])	Ka (神经丝轻链(NEFL) (human) [3]) [M⁻¹]	Substance
> 1.5	1.02e+06	–	抗NEFL单克隆抗体OTI2F5 (antibody)
> 1.5	1.02e+06	1.4e+09	抗人神经丝轻链(NEFL)单克隆抗体OTI11F6 (antibody)
> 1.5	512000	–	抗NEFL单克隆抗体OTI3G2 (antibody)
> 1.5	512000	–	抗NEFL单克隆抗体OTI11F8 (antibody)
